# Source: the Human Domainome abundance scans (Beltran et al. 2025)
# ± gives the uncertainty stated by the source.
# B1: Protein maelstrom homolog, residues 3 to 71; numbered along this chain, Q96JY0 (parent)
# chain: NRKASRNAYYFFVQEKIPELRRRGLPVARVADAIPYCSSDWALLREEEKEKYAEMAREWRAAQGKDPGP
# Variants of: B1
# Experiment: abundance fitness (aPCA) (normalised: wild type 0, dead -1); higher = more abundant; growth selection in yeast, the domain comes from the species named
# Details: Homo sapiens
row,Variant,abundance fitness
1,N7W,-0.257 ± 0.068
2,N7C,-0.497 ± 0.17
3,N7I,-0.355 ± 0.22
4,N7D,0.212 ± 0.17
5,N7Q,-0.147 ± 0.081
6,N7T,0 ± 0.12
7,N7M,0.015 ± 0.071
8,N7L,-0.168 ± 0.061
9,N7K,-0.05 ± 0.092
10,N7F,-0.233 ± 0.26
11,N7S,0.045 ± 0.071
12,N7Y,-0.44 ± 0.18
13,N7G,0.01 ± 0.063
14,N7V,-0.535 ± 0.068
15,N7P,-0.285 ± 0.13
16,N7H,-0.267 ± 0.13
17,N7A,-0.993 ± 0.28
18,K16C,-0.428 ± 0.25
19,K16M,-0.041 ± 0.11
20,K16A,-0.096 ± 0.12
21,K16R,0.031 ± 0.082
22,K16Q,-0.028 ± 0.13
23,K16F,-0.555 ± 0.26
24,K16N,0.082 ± 0.22

row,Variant,abundance fitness
1,K16G,-0.673 ± 0.1
2,E15H,0.023 ± 0.28
3,E15D,-0.241 ± 0.23
4,F11I,-0.398 ± 0.17
5,F11L,-0.322 ± 0.07
6,F11C,-0.313 ± 0.22
7,F11P,-0.776 ± 0.16
8,F11K,-0.94 ± 0.2
9,F11D,-0.705 ± 0.18
10,F11M,-0.072 ± 0.1
11,F11Y,-0.036 ± 0.13
12,F11A,-0.265 ± 0.075
13,F11H,-0.107 ± 0.18
14,F11T,-0.38 ± 0.18
15,F11S,-0.526 ± 0.077
16,F11R,-0.674 ± 0.091
17,F11W,-0.371 ± 0.15
18,F11Q,-0.328 ± 0.1
19,F11G,-0.694 ± 0.18
20,F11V,-0.502 ± 0.088
21,F11N,-0.512 ± 0.28
22,S5I,0.278 ± 0.32
23,S5V,-0.087 ± 0.1
24,S5C,-0.655 ± 0.34

row,Variant,abundance fitness
1,S5L,-0.593 ± 0.3
2,S5K,-0.206 ± 0.28
3,S5D,0.12 ± 0.17
4,S5Y,-0.36 ± 0.28
5,S5P,-0.24 ± 0.16
6,S5T,-0.202 ± 0.13
7,S5A,0.013 ± 0.12
8,S5M,-0.118 ± 0.18
9,S5G,-0.03 ± 0.084
10,S5R,-0.228 ± 0.11
11,S5E,0.137 ± 0.34
12,S5Q,-0.088 ± 0.15
13,Q14V,-0.265 ± 0.057
14,Q14T,-0.186 ± 0.063
15,Q14R,-0.074 ± 0.056
16,Q14E,0.135 ± 0.08
17,Q14G,-0.303 ± 0.068
18,Q14L,-0.079 ± 0.056
19,Q14M,-0.023 ± 0.074
20,Q14D,0.054 ± 0.098
21,Q14C,-0.148 ± 0.081
22,Q14W,-0.014 ± 0.072
23,Q14H,-0.618 ± 0.19
24,Q14P,-0.724 ± 0.1

row,Variant,abundance fitness
1,Q14Y,-0.145 ± 0.13
2,Q14F,-0.299 ± 0.12
3,Q14S,-0.196 ± 0.058
4,Q14I,-0.228 ± 0.077
5,Q14A,-0.171 ± 0.067
6,V13G,-0.797 ± 0.45
7,V13I,-0.375 ± 0.36
8,V13F,-0.532 ± 0.26
9,V13L,-0.32 ± 0.25
10,A4V,-0.001 ± 0.085
11,A4T,0.049 ± 0.17
12,A4W,-0.262 ± 0.096
13,F12D,-0.403 ± 0.13
14,F12C,-0.621 ± 0.12
15,F12H,-0.847 ± 0.26
16,F12N,-0.624 ± 0.18
17,F12P,-0.869 ± 0.099
18,F12R,-0.797 ± 0.061
19,F12E,-0.778 ± 0.11
20,F12M,-0.53 ± 0.047
21,F12W,-0.404 ± 0.068
22,F12V,-0.757 ± 0.077
23,F12G,-0.531 ± 0.064
24,F12L,-0.713 ± 0.072

row,Variant,abundance fitness
1,F12Y,0.013 ± 0.1
2,F12S,-0.7 ± 0.12
3,F12I,-0.97 ± 0.23
4,F12K,-0.851 ± 0.11
5,Y9K,-0.037 ± 0.11
6,Y9N,-0.168 ± 0.17
7,Y9P,-0.338 ± 0.08
8,Y9D,-0.185 ± 0.22
9,Y9M,0.026 ± 0.08
10,Y9R,-0.239 ± 0.06
11,Y9C,-0.289 ± 0.16
12,Y9I,-0.09 ± 0.13
13,Y9W,-0.242 ± 0.1
14,Y9S,-0.513 ± 0.1
15,Y9Q,-0.033 ± 0.11
16,Y9A,-0.53 ± 0.14
17,Y9E,0.001 ± 0.11
18,Y9T,-0.615 ± 0.12
19,Y9F,0.18 ± 0.18
20,Y9G,-0.61 ± 0.074
21,Y9V,-0.222 ± 0.074
22,Y9L,-0.007 ± 0.035
23,Y9H,-0.137 ± 0.11
24,A8P,-0.221 ± 0.083

row,Variant,abundance fitness
1,A8M,-0.357 ± 0.061
2,A8N,-0.429 ± 0.29
3,A8F,-0.936 ± 0.46
4,A8C,-0.269 ± 0.24
5,A8R,-0.385 ± 0.072
6,A8I,-0.27 ± 0.21
7,A8L,-0.783 ± 0.11
8,A8V,-0.796 ± 0.12
9,A8Y,-0.696 ± 0.17
10,A8E,-0.294 ± 0.14
11,A8S,-0.177 ± 0.088
12,A8T,-0.325 ± 0.11
13,A8H,-0.498 ± 0.21
14,A8D,-0.046 ± 0.1
15,A8G,-0.057 ± 0.074
16,A8Q,-0.304 ± 0.082
17,A8K,-0.483 ± 0.096
18,R6S,-0.228 ± 0.15
19,R6P,-0.179 ± 0.14
20,R6K,-0.419 ± 0.26
21,R6Y,-0.175 ± 0.34
22,R6A,-0.097 ± 0.15
23,R6C,-0.123 ± 0.18
24,R6L,0.046 ± 0.045

row,Variant,abundance fitness
1,R6Q,-0.447 ± 0.24
2,R6T,0.109 ± 0.19
3,R6M,-0.064 ± 0.17
4,R6V,-0.467 ± 0.24
5,R6E,0.061 ± 0.17
6,Y10I,-0.657 ± 0.2
7,Y10E,-0.065 ± 0.08
8,Y10S,-0.552 ± 0.1
9,Y10G,-0.5 ± 0.07
10,Y10C,-0.643 ± 0.11
11,Y10W,-0.175 ± 0.1
12,Y10P,-1.07 ± 0.18
13,Y10Q,-0.254 ± 0.079
14,Y10A,-0.403 ± 0.075
15,Y10R,-0.358 ± 0.066
16,Y10M,-0.361 ± 0.09
17,Y10T,-0.427 ± 0.096
18,Y10F,0.085 ± 0.14
19,Y10K,-0.454 ± 0.08
20,Y10L,-0.332 ± 0.072
21,Y10N,0.15 ± 0.29
22,Y10D,0.185 ± 0.18
23,Y10V,-0.498 ± 0.092
